According to patent US20190375855A1 (Memorial Sloan Kettering, published 2019):

Molecular target: T1, Trp1 as expressed by B16 melanoma cells (UniProt P07147 25-537, limits assumed)
T1 construct: whole, on cells; also called Tyrosinase-related protein 1; TYRP1
Experiment: flow cytometry on permeabilized B16 cells, detection with anti-mouse IgG PE
From the text: FIG. 2 depicts Trp1 expression profile. B16, B78H1, and B78H1 engineered to express Trp1 on the surface were stained with TA99, TA99 single chain variable region fused to an Fc domain, or isotype control. The cell lines were washed and stained with anti-mouse IgG PE and further analyzed by flow cytometry. B16 was permeabilized before staining since the level of Trp1 expression is suboptimal in the surface in vitro.
An scFv that specifically binds to a mouse Trp1 polypeptide and a human Trp1 polypeptide was generated from a murine monoclonal antibody TA99 that was generated from the TA99 antibody disclosed in International Patent Publication No. WO96/40249. This scFv was cloned into an eGFP cassette. The binding specificity of this scFv to the Trp1 polypeptide was evaluated using a soluble protein comprising this scFv and a Fc domain fused to the scFv. The binding specificity of the scFv-Fc fusion protein to B16 melanoma cells (expressing Trp1), a B16 variant B78H1 (not expressing Trp1), and B78H1-Trp1 (B78H1 engineered to express TRP1 on the surface) was evaluated by flow cytometry. […]

B1: soluble protein comprising the TA99-derived scFv and a Fc domain fused to the scFv (Fc fusion, not shown: a dimerising Fc or GST)
scFv: EVQLQQSGAELVRPGALVKLSCKTSGFNIKDYFLHWVRQRPDQGLEWIGWINPDNGNTVYDPKFQGTASLTADTSSNTVYLQLSGLTSEDTAVYFCTRRDYTYEKAALDYWGQGASVIVSSGGGGSGGGGSGGGGSAFQMSQSPASLSASVGETVTITCRASGNIYNYLAWYQQKQGKSPHLLVYDAKTLADGVPSRFSGSGSGTQYSLKISSLQTEDSGNYYCQHFWSLPFTFGSGTKLEIKAAA
notes: also called scFv-Fc fusion protein; TA99 single chain variable region fused to an Fc domain
B1: binds.
